Molecular target: T1, mouse FAPα-His protein (mouse, UniProt P97321 26-761, limits assumed)
T1 construct: not shown: His tag
T1 sequence (looked up): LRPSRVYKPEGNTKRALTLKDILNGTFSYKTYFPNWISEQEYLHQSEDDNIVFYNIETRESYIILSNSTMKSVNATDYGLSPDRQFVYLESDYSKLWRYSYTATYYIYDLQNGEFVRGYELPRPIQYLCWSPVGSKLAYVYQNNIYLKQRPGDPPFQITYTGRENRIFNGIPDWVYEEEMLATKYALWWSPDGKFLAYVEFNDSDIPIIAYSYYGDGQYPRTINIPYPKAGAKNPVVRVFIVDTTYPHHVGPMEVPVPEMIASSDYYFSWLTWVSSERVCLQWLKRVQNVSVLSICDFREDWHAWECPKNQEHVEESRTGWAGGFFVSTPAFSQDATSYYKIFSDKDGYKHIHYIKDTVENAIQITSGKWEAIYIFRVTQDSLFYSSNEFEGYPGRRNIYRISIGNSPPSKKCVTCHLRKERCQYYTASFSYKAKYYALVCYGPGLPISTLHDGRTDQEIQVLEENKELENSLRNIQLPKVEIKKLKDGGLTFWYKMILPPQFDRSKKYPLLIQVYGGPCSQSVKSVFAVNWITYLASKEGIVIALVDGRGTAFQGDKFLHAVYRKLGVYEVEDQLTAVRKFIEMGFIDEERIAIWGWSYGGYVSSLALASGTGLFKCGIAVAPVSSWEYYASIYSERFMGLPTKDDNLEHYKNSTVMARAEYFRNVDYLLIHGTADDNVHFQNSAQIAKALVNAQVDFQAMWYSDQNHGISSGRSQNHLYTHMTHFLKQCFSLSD
Assay: ELISA, coated mouse FAPα-His
Protocol: Briefly, microtiter plates were coated with mouse FAPα-His protein at 0.5 ug/ml in PBS, 100 μl/well at 4° C. overnight, then blocked with 150 μl/well of 1% BSA. Three-fold dilutions of tested antibodies starting from 1 μg/ml were added to each well and incubated for 1 hour at 37° C. The plates were washed with PBS/Tween and then incubated with Anti-Human IgG (H&L) (GOAT) Antibody Peroxidase Conjugated for 30 mins at 37° C. After washing, the plates were developed with TMB substrate and analyzed by spectrophotometer at OD 450 nm.

EC50: 5.2 ng/mL
B1: I37 (antibody, V domains shown)
VH: QLQLVESGGGLVQPGGSLRLSCAASGFTFSSYAMSWVRQAPGKGLEWVSAISGSGGSTYYADSVKGRFTISRDNSKNTLYLQMNSLRAEDTAVYYCARDKPWGGSFDYWGQGTLVTVSA
VL: DIQLTQSPSSLSASVGDRVTITCRASQGISSWLAWYQQKPGKAPKLLIYAASSLQSGVPSRFSGSGSGTDFTLTISSLQPEDFATYYCQQANSFPVTFGPGTKVDIK
notes: Tested as a mAb; also called FAP-I37

Source: patent US20250297032A1 (CONCEPT TO MEDICINE BIOTECH, published 2025)
